Patent publication US20040043959A1, “Combination therapies for treating methylthioadenosine phosphorylase deficient cells” (priority 2002, published 2004)

Legend:
Test in all cases: MTAP substrate assay, coupled spectrophotometric (adenine, xanthine oxidase)
Format in all cases: biochemical, human
Conditions in all cases: other: substrate of MTAP, 37° C.
[1] = substrate: CC(C)CCSC[C@H]1O[C@@H](n2cnc3c(N)ncnc32)[C@H](O)[C@@H]1O
Experimental: (§1) An enzymatic assay to determine the activity of MTAP against a given substrate was performed. Human MTAP containing an N-terminal six-histidine tag was expressed in E. coli BL21 DE3 cells. The protein was purified to homogeneity by Ni2+ affinity chromatography. Enzymatic activity was measured using a coupled spectrophotometric assay designed to monitor the reaction product adenine (Savarese, T. M., Crabtree, G. W., and Parks, R. E. Jr., (1980) Biochem. Pharmacol. 30, 189-199). Various concentrations of the indicated 5′-deoxymethylthio adenosine (MTA) or substrate were incubated in assay buffer (40 mM potassium phosphate buffer, 1 mM, and DTT 0.8 units/ml xanthine oxidase coupling enzyme) for 5 minutes at 37° C. The reaction was initiated by the addition of MTAP. The exact concentration of enzyme used varied for each substrate tested and ranged from 2 nM to 500 nM. Activity as a function of enzyme concentration was determined for each substrate tested to ensure that the appropriate enzyme concentration was used. Activity was detected by continuous monitoring of absorbance at 305 nm for 10 minutes (ΔE=15,500 M^−1).
(§2) Library compounds (10 and 50 uM) were tested using the assay described above with 2 nM MTAP enzyme. The resultant initial velocities are reported as a percentage of the initial velocity observed when MTA is the substrate. MTA controls, 10 and 50 uM concentrations, were run on each plate alongside the library compounds.

[2] = substrate: CC(C)CSC[C@@H]1O[C@H](n2cnc3c(N)ncnc32)[C@H](O)[C@@H]1O
Experimental: as §1, §2

[3] = substrate: COc1ccc(CSC[C@H]2O[C@@H](n3cnc4c(N)ncnc43)[C@H](O)[C@@H]2O)cc1
Experimental: as §1, §2

[4] = substrate: COc1cccc(SC[C@H]2O[C@@H](n3cnc4c(N)ncnc43)[C@H](O)[C@@H]2O)c1
Experimental: as §1, §2

[5] = substrate: COc1ccccc1SC[C@H]1O[C@@H](n2cnc3c(N)ncnc32)[C@H](O)[C@@H]1O
Experimental: as §1, §2

[6] = substrate: CSC[C@@H]1C[C@@H](O)[C@H](n2cnc3c(N)ncnc32)O1
Experimental: as §1, §2

[7] = substrate: CSC[C@H]1O[C@@H](n2cnc3c(N)ncnc32)[C@H](O)[C@@H]1O
Experimental: as §1, §2

[8] = substrate: Cc1ccc(SC[C@H]2O[C@@H](n3cnc4c(N)ncnc43)[C@H](O)[C@@H]2O)cc1
Experimental: as §1, §2

[9] = substrate: Cc1ccccc1SC[C@H]1O[C@@H](n2cnc3c(N)ncnc32)[C@H](O)[C@@H]1O
Experimental: as §1, §2

[10] = substrate: Nc1ncnc2c1ncn2[C@@H]1O[C@H](CNC2CCCC2)[C@@H](O)[C@H]1O
Experimental: as §1, §2

[11] = substrate: Nc1ncnc2c1ncn2[C@@H]1O[C@H](CNCc2ccc(F)cc2)[C@@H](O)[C@H]1O
Experimental: as §1, §2

[12] = substrate: Nc1ncnc2c1ncn2[C@@H]1O[C@H](COc2cccnc2)[C@@H](O)[C@H]1O
Experimental: as §1, §2

[13] = substrate: Nc1ncnc2c1ncn2[C@@H]1O[C@H](CSCCO)[C@@H](O)[C@H]1O
Experimental: as §1, §2

[14] = substrate: Nc1ncnc2c1ncn2[C@@H]1O[C@H](CSCCc2ccccc2)[C@@H](O)[C@H]1O
Experimental: as §1, §2

[15] = substrate: Nc1ncnc2c1ncn2[C@@H]1O[C@H](CSCc2ccccc2)[C@@H](O)[C@H]1O
Experimental: as §1, §2

[16] = substrate: Nc1ncnc2c1ncn2[C@@H]1O[C@H](CSCc2ccco2)[C@@H](O)[C@H]1O
Experimental: as §1, §2

[17] = substrate: Nc1ncnc2c1ncn2[C@@H]1O[C@H](CSCc2cccs2)[C@@H](O)[C@H]1O
Experimental: as §1, §2

[18] = substrate: Nc1ncnc2c1ncn2[C@@H]1O[C@H](CSc2ccccn2)[C@@H](O)[C@H]1O
Experimental: as §1, §2

[19] = substrate: Nc1ncnc2c1ncn2[C@@H]1O[C@H](CSc2ccncc2)[C@@H](O)[C@H]1O
Experimental: as §1, §2

B1: Human MTAP (Homo sapiens) (protein)
chain: MASGTTTTAVKIGIIGGTGLDDPEILEGRTEKYVDTPFGKPSDALILGKIKNVDCVLLARHGRQHTIMPSKVNYQANIWALKEEGCTHVIVTTACGSLREEIQPGDIVIIDQFIDRTTMRPQSFYDGSHSCARGVCHIPMAEPFCPKTREVLIETAKKLGLRCHSKGTMVTIEGPRFSSRAESFMFRTWGADVINMTTVPEVVLAKEAGICYASIAMATDYDCWKEHEEAVSVDRVLKTLKENANKAKSLLLTTIPQIGSTEWSETLHNLKNMAQFSVLLPRH
notes: six-histidine tag (His6) (N); made in house; host or cells: E. coli BL21 DE3
Km [1]: 2.8 µM | kcat [1]: 5.5 s⁻¹ | Km [2]: 3.1 µM | kcat [2]: 2.3 s⁻¹ | Km [3]: 3.7 µM | kcat [3]: 3.8 s⁻¹ | Km [4]: 2.2 µM | kcat [4]: 1.4 s⁻¹ | Km [5]: 13 µM | kcat [5]: 0.13 s⁻¹ | Km [6]: 3.9 µM | kcat [6]: 0.004 s⁻¹ | Km [7]: 2.233 µM | kcat [7]: 3.97 s⁻¹ | Km [8]: 1.5 µM | kcat [8]: 1.44 s⁻¹ | Km [9]: 5.6 µM | kcat [9]: 0.175 s⁻¹ | Km [10]: 600 µM | kcat [10]: 0.3 s⁻¹ | Km [11]: 145 µM | kcat [11]: 0.089 s⁻¹ | Km [12]: 33 µM | kcat [12]: 0.126 s⁻¹ | Km [13]: 25 µM | kcat [13]: 1.46 s⁻¹ | Km [14]: 5 µM | kcat [14]: 2.14 s⁻¹ | Km [15]: 4.65 µM | kcat [15]: 2.5 s⁻¹ | Km [16]: 4.45 µM | kcat [16]: 6.15 s⁻¹ | Km [17]: 6 µM | kcat [17]: 4.6 s⁻¹ | Km [18]: 5.2 µM | kcat [18]: 3.44 s⁻¹ | Km [19]: 0.88 µM | kcat [19]: 0.23 s⁻¹
